The target of test [1] is recombinant 6x-His-tagged p32 protein (p32/gC1qR) (UniProt Q07021). The test can be described thus: AUC.
The next test addresses T1, p32 protein (Homo sapiens, UniProt Q07021).
T1 sequence (Q07021 74-282): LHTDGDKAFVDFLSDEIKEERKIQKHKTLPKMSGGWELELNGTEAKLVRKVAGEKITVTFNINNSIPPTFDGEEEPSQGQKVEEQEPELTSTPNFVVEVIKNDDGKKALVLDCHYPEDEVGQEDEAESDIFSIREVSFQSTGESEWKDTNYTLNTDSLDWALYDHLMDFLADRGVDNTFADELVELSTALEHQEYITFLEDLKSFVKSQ
Briefly: Binding of peptide-displaying T7 phage clones to immobilized p32 protein. Particulars: peptide displayed on T7 phage; compared to LyP-1 phage.

Test [2] deals with T2, recombinant 6x-His-tagged p32 protein (p32/gC1qR) (UniProt Q07021 74-282).
T2 sequence (looked up): T1 sequence (Q07021 74-282)
Briefly: fluorescence polarisation. Background: Fluorescence polarisation rises when a labelled molecule tumbles more slowly, as on binding a larger partner.

Ends that are not written are not given here. Some results are limits rather than exact numbers.

What is called stoichiometry N is a count of units in the complex or per binding partner. In the case of “recombinant 6x-His-tagged p32 protein (p32/gC1qR) (from UniProt Q07021 74-282) (natural protein; other documents disagree on this pair)”, the stoichiometry N in test [1] came to 3.
On to CTRGSRSKC, for which, in the test with p32 protein, the “phage binding to p32” value is given as “greatly improved binding to p32 compared to LyP-1 phage”.
The same measure, in the same setting: the entry for CKRGNRSMC is “greatly improved binding to p32 compared to LyP-1 phage”.
In general, Kd refers to the constant that tells how readily two partners part at equilibrium. On to CGNKRTRGC (cysteine pairing not given here; also: FAM label, position not given here) [FAM-labeled LyP-1 peptide (CGNKRTRGC)], for which, in test [2], the Kd was above 23 µM.
